Data taken from PMC8840716, “Functional Antagonism of WRI1 and TCP20 Modulates GH3.3 Expression to Maintain Auxin Homeostasis in Roots”.

Columns and labels:
[1] = biological target: T1, AtWRI1 1-302 (UniProt Q6X5Y6 1-302); experiment: EMSA; 15 mM HEPES-KOH pH 7.5, 7.5 mM KCl, 0.5 mM EDTA, 5% glycerol, 2 mM DTT, 1 ug/uL BSA, 0.05 ug/uL poly(dI-dC), 2 fmol/uL probe, ~1 pmol His-TCP20 in 20 uL, room temperature 30 min; conditions: protein: recombinant; tags: N-terminal 6xHis (pNIC28-Bsa4); label: 5' biotin
T1 sequence (Q6X5Y6 1-302): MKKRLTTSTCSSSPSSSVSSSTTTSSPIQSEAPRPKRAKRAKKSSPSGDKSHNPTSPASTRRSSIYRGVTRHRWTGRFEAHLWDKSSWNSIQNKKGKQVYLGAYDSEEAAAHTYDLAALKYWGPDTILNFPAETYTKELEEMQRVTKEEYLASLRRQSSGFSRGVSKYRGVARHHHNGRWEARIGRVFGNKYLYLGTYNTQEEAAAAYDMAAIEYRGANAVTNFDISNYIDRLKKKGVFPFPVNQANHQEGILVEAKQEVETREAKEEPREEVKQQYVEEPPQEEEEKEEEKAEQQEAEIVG

[2] = biological target: T2, TCP20 (UniProt Q9LSD5 1-314); experiment: as above; conditions: protein: recombinant; tags: 6xHis (pET41a-6xHis); chain copies: 2; label: 5' biotin
T2 sequence (Q9LSD5 whole entry): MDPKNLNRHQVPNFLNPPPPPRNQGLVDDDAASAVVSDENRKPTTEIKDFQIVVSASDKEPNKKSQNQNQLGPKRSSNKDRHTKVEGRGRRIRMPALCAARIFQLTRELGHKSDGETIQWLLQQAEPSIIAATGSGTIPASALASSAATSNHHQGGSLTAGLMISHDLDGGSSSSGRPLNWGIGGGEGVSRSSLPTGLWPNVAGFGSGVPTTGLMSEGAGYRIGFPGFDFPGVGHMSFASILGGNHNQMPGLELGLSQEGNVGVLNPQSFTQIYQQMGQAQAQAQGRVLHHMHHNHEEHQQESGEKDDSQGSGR

[3] = biological target: T1, AtWRI1 1-302; experiment: EMSA; equal affinity to probe 2; 15 mM HEPES-KOH pH 7.5, 7.5 mM KCl, 0.5 mM EDTA, 5% glycerol, 2 mM DTT, 1 ug/uL BSA, 0.05 ug/uL poly(dI-dC), 2 fmol/uL probe, ~1 pmol His-TCP20 in 20 uL, room temperature 30 min; conditions: protein: recombinant; tags: N-terminal 6xHis (pNIC28-Bsa4); label: 5' biotin
[4] = biological target: T1, AtWRI1 1-302; experiment: EMSA; equal affinity to probe 1; 15 mM HEPES-KOH pH 7.5, 7.5 mM KCl, 0.5 mM EDTA, 5% glycerol, 2 mM DTT, 1 ug/uL BSA, 0.05 ug/uL poly(dI-dC), 2 fmol/uL probe, ~1 pmol His-TCP20 in 20 uL, room temperature 30 min; conditions: protein: recombinant; tags: N-terminal 6xHis (pNIC28-Bsa4); label: 5' biotin
[5] = biological target: T2, TCP20; experiment: EMSA; plus AtWRI1 1-302, 0.53-2.12 pmol (no reduction); 15 mM HEPES-KOH pH 7.5, 7.5 mM KCl, 0.5 mM EDTA, 5% glycerol, 2 mM DTT, 1 ug/uL BSA, 0.05 ug/uL poly(dI-dC), 2 fmol/uL probe, ~1 pmol His-TCP20 in 20 uL, room temperature 30 min; conditions: protein: recombinant; tags: 6xHis (pET41a-6xHis); chain copies: 2; label: 5' biotin
[6] = biological target: T1, AtWRI1 1-302; experiment: EMSA; equal affinity to probe 3; 15 mM HEPES-KOH pH 7.5, 7.5 mM KCl, 0.5 mM EDTA, 5% glycerol, 2 mM DTT, 1 ug/uL BSA, 0.05 ug/uL poly(dI-dC), 2 fmol/uL probe, ~1 pmol His-TCP20 in 20 uL, room temperature 30 min; conditions: protein: recombinant; tags: N-terminal 6xHis (pNIC28-Bsa4); label: 5' biotin

Binder | binding result [1] | binding result [2] | other results
proGH3.3 probe 2 (dsDNA) DNA 1: ATGTCTGCCCAAAACTAGCCAAAGATTACGTGACCGCGGTCCCTCTTGTCC DNA 2: GGACAAGAGGGACCGCGGTCACGTAATCTTTGGCTAGTTTTGGGCAGACAT | binds | binds | 
proGH3.3 probe 2M (dsDNA) DNA 1: ATGTCTGCCCAAAACTAGCCAAAGATTACGTGACCGCAATAAATATTGTCC DNA 2: GGACAATATTTATTGCGGTCACGTAATCTTTGGCTAGTTTTGGGCAGACAT |  | no binding | binding result [3]: binds
proGH3.3 probe 1 (dsDNA) DNA 1: TCTAACGATAACAAACCGAGCCCACTTTTATGTCGACGTGGAATTTGGCT DNA 2: AGCCAAATTCCACGTCGACATAAAAGTGGGCTCGGTTTGTTATCGTTAGA | binds | binds | 
proGH3.3 probe 1M (dsDNA) DNA 1: TCTAACGATAACAAACCAAGAAAAATTTTATGTCGACGTGGAATTTGGCT DNA 2: AGCCAAATTCCACGTCGACATAAAATTTTTCTTGGTTTGTTATCGTTAGA |  | no binding | binding result [4]: binds
proGH3.3 probe 4 (dsDNA) DNA 1: CTATATATTTTTAATATTTAGGTCCCATTAAATCAGTTTGTGATTTCAGA DNA 2: TCTGAAATCACAAACTGATTTAATGGGACCTAAATATTAAAAATATATAG |  |  | binding result [5]: binds
proGH3.3 probe 4M (dsDNA) DNA 1: CTATATATTTTTAATATTTAAATAAAATTAAATCAGTTTGTGATTTCAGA DNA 2: TCTGAAATCACAAACTGATTTAATTTTATTTAAATATTAAAAATATATAG |  | no binding | 
proGH3.3 probe 3 (dsDNA) DNA 1: GACATATCAGTCCCACATGTCTGCCCAAAACTAGCCAAAGATTACGTGACC DNA 2: GGTCACGTAATCTTTGGCTAGTTTTGGGCAGACATGTGGGACTGATATGTC | binds |  | binding result [5]: binds
proGH3.3 probe 3M (dsDNA) DNA 1: GACATATCAATAAAAAATGTCTGCCCAAAACTAGCCAAAGATTACGTGACC DNA 2: GGTCACGTAATCTTTGGCTAGTTTTGGGCAGACATTTTTTATTGATATGTC |  | no binding | binding result [6]: binds
